Common to all, as to format: cell-based
Assay [1] relates to rat peritoneal mast cells. As to the kind of experiment: Test 2: histamine release from rat peritoneal mast cells induced by α-toxin-producing Staphylococcus aureus cells. Particulars: for Histamine release (Relative %): S. aureus 121 about 1.0×10^8 cells per ml, control (saline) = 100; for activity to promote the release of histamine from mast cells induced by α-toxin-producing Staphylococcus aureus cells (in words): 1 to 100 ppm. How it is done:
This test was performed to study the activity of the peptide of the present invention to promote the release of histamine from rat peritoneal mast cells induced by α-toxin-producing Staphylococcus aureus cells.
Staphylococcus aureus 121, an α-toxin-producing strain, was cultured overnight in Brain Heart Infusion broth at 37° C. The bacterial cells were collected by centrifugation at 4000×g for 20 min, washed with phosphate-buffered saline, and suspended in the same buffer for use in the experiment. Rat peritoneal cells were prepared as in Test 1.
The same method as in Test 1 was used, except histamine release from the mast cells was induced by the addition of α-toxin-producing Staphylococcus aureus cells at a final concentration of about 1.0×10^8 cells per ml.

In assay [2] the test system is rat peritoneal mast cells. As to the kind of experiment: Test 1: histamine release from rat peritoneal mast cells induced by calcium ionophore A23187. The conditions noted are these: for Histamine release (Relative %): A23187 5 μM, control (saline) = 100; for activity to promote the release of histamine from mast cells induced by A23187 (in words): 1 to 100 ppm. As to the method:
This test was performed to study the activity of the peptide of the present invention to promote the release of histamine from rat peritoneal mast cells induced by the calcium ionophore A23187.
Peritoneal cells were collected from Wistar rats after intraperitoneal injection of phosphate-buffered saline (consisting of 120 mM NaCl, 10 mM Na2 PO4, 3 mM KH2 PO4, pH 7.4). Their abdoments were massaged and the buffer containing the cells was recovered. The cells were centrifuged at 300×g for 15 min and washed twice with phosphate-buffered saline. The cells from several rats were pooled for use in the experiments.
Rat peritoneal cells containing about 1×10^5 mast cells per ml were used as the target cells. A 500 μl volume of the cell suspension was incubated with 100 μl volume of the test substance [purified peptide obtained by the method as in Example 1, or human lactoferrin (Sigma Chemical Co.), or bovine lactoferrin (Morinaga Milk industry Co.)] at 37° C. for 3O min. Thereafter, histamine release from the mast cells was induced by the addition of calcium ionophore A23187 (Sigma Chemical Co.) at a final concentration of 5 μM. After 10 min of incubation the cells were centrifuged at 300×g for 15 min and the supernatant was removed and deproteinized by the addition of 2 ml of HClO4 (2%). The deproteinized sample was then centrifuged at 2000×g for 20 min and the histamine content in the supernatant was determined by the fluorophotometric analyser technique (AutoAnalyzer: Technikon). Cells in the presence of phosphate-buffered saline served as control.

Assay [3] relates to human polymorphonuclear neutrophils. As to the kind of experiment: Test 3: leukotriene release from human polymorphonuclear neutrophils induced by calcium ionophore A23187. The conditions noted are these: for Leukotriene released (ng) B4 / Leukotriene released (ng) C4 / Leukotriene released (ng) 20-COOH / Leukotriene released (ng) 20-OH: A23187 5 μM; for Leukotriene released (ng) B4: saline control 12; for Leukotriene released (ng) C4: saline control 18; for Leukotriene released (ng) 20-COOH: saline control 31; for Leukotriene released (ng) 20-OH: saline control 55; for Leukotriene released (ng) (Total B4): sum of B4, 20-OH and 20-COOH, saline control 98; for activity to promote the release of leukotriene B4 from polymorphonuclear neutrophils (in words): 1 to 100 ppm. How it is done: This test was performed to study the activity of the peptide of the present invention to promote the release of leukotriene B4 from human polymorphonuclear neutrophils induced by the calcium ionophore A23187.
Human polymorphonuclear neutrophils were prepared by fractionation of leukocytes from heparinized blood of healthy donors on a Ficoll-metrizoategradient followed by dextran sedimentation. The cells were centrifuged at 300×g, and washed three times with phosphate-buffered saline, after which less than 2% of the platelets remained. Erythrocytes were removed by exposing the cells to hypotonic conditions. The purity of the polymorphonuclear neutrophil fraction used was greater than 97% as confirmed by light microscopy.
For analysis of leukotriene release, human neutrophils suspended in phosphate-buffered saline at approximately 1×10^7 cells per ml were used as the target cells. The cells were incubated for 30 min in the presence of test substance [(purified peptide obtained by the method as in Example 1, or human lactoferrin (Sigma Chemical Co.), or bovine lactoferrin (Morinaga Milk Industry Co.)]. Leukotriene release from the neutrophils was then induced by the addition of calcium ionophore A23187 (Sigma chemical Co.) at a final concentration of 5 μM. After 30 min, the supernatants of the stimulated cells were deproteinized by addition of 2 ml of methanol-acetonitrile (1:1) overlaid with nitrogen and frozen for 12 h at -70° C. After centrifugation at 1000×g for 15 min the supernatant was evaporated to dryness in a freeze dryer, suspended in 0.5 ml of methanol-water (30:70), overlaid with nitrogen, and stored overnight at -70° C. The samples were centrifuged at 1000×g and the supernatant was assayed for the presence of leukotrienes by high pressure liquid chromatography using a reverse-phase column of Nucleosil (C18; 5 μm particles) at a column temperature of 40° C. The solvent system was a mixture of phosphate buffer (17 mM K2 HPO4 containing 0.05% EDTA), acetonitrile, and methanol (50:30:20) adjusted to pH 5.0 with phosphoric acid. The absorbance at 280 nm of the column effluent was monitored and recorded. The concentration of each eluted leukotriene was determined from the peak area by means of a computing integrator. The leukotrienes were identified from their retention times with reference to known standards. The minimum detectable quantity was 1 ng in each instance.

B1: lactoferrin, human: human lactoferrin (Sigma Chemical Co.) (protein, UniProt P02788 20-710, looked up)
Lactotransferrin: GRRRSVQWCAVSQPEATKCFQWQRNMRKVRGPPVSCIKRDSPIQCIQAIAENRADAVTLDGGFIYEAGLAPYKLRPVAAEVYGTERQPRTHYYAVAVVKKGGSFQLNELQGLKSCHTGLRRTAGWNVPIGTLRPFLNWTGPPEPIEAAVARFFSASCVPGADKGQFPNLCRLCAGTGENKCAFSSQEPYFSYSGAFKCLRDGAGDVAFIRESTVFEDLSDEAERDEYELLCPDNTRKPVDKFKDCHLARVPSHAVVARSVNGKEDAIWNLLRQAQEKFGKDKSPKFQLFGSPSGQKDLLFKDSAIGFSRVPPRIDSGLYLGSGYFTAIQNLRKSEEEVAARRARVVWCAVGEQELRKCNQWSGLSEGSVTCSSASTTEDCIALVLKGEADAMSLDGGYVYTAGKCGLVPVLAENYKSQQSSDPDPNCVDRPVEGYLAVAVVRRSDTSLTWNSVKGKKSCHTAVDRTAGWNIPMGLLFNQTGSCKFDEYFSQSCAPGSDPRSNLCALCIGDEQGENKCVPNSNERYYGYTGAFRCLAENAGDVAFVKDVTVLQNTDGNNNEAWAKDLKLADFALLCLDGKRKPVTEARSCHLAMAPNHAVVSRMDKVERLKQVLLHQQAKFGRNGSDCPDKFCLFQSETKNLLFNDNTECLARLHGKTTYEKYLGPQYVAGITNLKKCSTSPLLEACEFLRK
In the case of B1, the “Histamine release (Relative %)” value in assay [1] (1 ppm test substance) came to 180 ± 5 Relative %; in assay [1] (10 ppm test substance) it was 115 ± 15 Relative %; in assay [1] (100 ppm test substance) it was 120 ± 20 Relative %; in assay [2] (1 ppm test substance), 115 ± 20 Relative %; in assay [2] (10 ppm test substance), 110 ± 10 Relative %; in assay [2] (100 ppm test substance), 100 ± 10 Relative %. Also, in assay [1], the “activity to promote the release of histamine from mast cells induced by α-toxin-producing Staphylococcus aureus cells (in words)” value is “little, if any, such activity”. Moreover, the “activity to promote the release of histamine from mast cells induced by A23187 (in words)” value in assay [2] was “little, if any, such activity”. The entries for the “Leukotriene released (ng) B4” value in assay [3] (1 ppm test substance), in assay [3] (10 ppm test substance) and in assay [3] (100 ppm test substance) were 11 ng, 10 ng and 10 ng, respectively. For the same molecule, the “Leukotriene released (ng) C4” value worked out at 12 ng in assay [3] (1 ppm test substance), 13 ng in assay [3] (10 ppm test substance) and 17 ng in assay [3] (100 ppm test substance). For the same molecule, the entries for the “Leukotriene released (ng) 20-COOH” value in assay [3] (1 ppm test substance), in assay [3] (10 ppm test substance) and in assay [3] (100 ppm test substance) were 41 ng, 26 ng and 26 ng, respectively. For the same molecule, the figures for the “Leukotriene released (ng) 20-OH” value in assay [3] (1 ppm test substance), in assay [3] (10 ppm test substance) and in assay [3] (100 ppm test substance) were 80 ng, 50 ng and 42 ng, respectively. For the same molecule, the “Leukotriene released (ng) (Total B4)” value in assay [3] (1 ppm test substance) is recorded as 131 ng; in assay [3] (10 ppm test substance) it was 86 ng; in assay [3] (100 ppm test substance), 76 ng. Also, the “activity to promote the release of leukotriene B4 from polymorphonuclear neutrophils (in words)” value in assay [3] is reported as “little, if any, such activity”.

B2: lactoferrin, bovine: bovine lactoferrin (Morinaga Milk industry Co.) (protein, UniProt P24627 20-708, looked up)
Lactotransferrin: APRKNVRWCTISQPEWFKCRRWQWRMKKLGAPSITCVRRAFALECIRAIAEKKADAVTLDGGMVFEAGRDPYKLRPVAAEIYGTKESPQTHYYAVAVVKKGSNFQLDQLQGRKSCHTGLGRSAGWIIPMGILRPYLSWTESLEPLQGAVAKFFSASCVPCIDRQAYPNLCQLCKGEGENQCACSSREPYFGYSGAFKCLQDGAGDVAFVKETTVFENLPEKADRDQYELLCLNNSRAPVDAFKECHLAQVPSHAVVARSVDGKEDLIWKLLSKAQEKFGKNKSRSFQLFGSPPGQRDLLFKDSALGFLRIPSKVDSALYLGSRYLTTLKNLRETAEEVKARYTRVVWCAVGPEEQKKCQQWSQQSGQNVTCATASTTDDCIVLVLKGEADALNLDGGYIYTAGKCGLVPVLAENRKSSKHSSLDCVLRPTEGYLAVAVVKKANEGLTWNSLKDKKSCHTAVDRTAGWNIPMGLIVNQTGSCAFDEFFSQSCAPGADPKSRLCALCAGDDQGLDKCVPNSKEKYYGYTGAFRCLAEDVGDVAFVKNDTVWENTNGESTADWAKNLNREDFRLLCLDGTRKPVTEAQSCHLAVAPNHAVVSRSDRAAHVKQVLLHQQALFGKNGKNCPDKFCLFKSETKNLLFNDNTECLAKLGGRPTYEEYLGTEYVTAIANLKKCSTSPLLEACAFLTR
Take B2: the “Histamine release (Relative %)” value in assay [1] (1 ppm test substance) is on record as 150 ± 10 Relative %; in assay [1] (10 ppm test substance) it was 160 ± 10 Relative %; in assay [1] (100 ppm test substance), 110 ± 15 Relative %; in assay [2] (1 ppm test substance), 105 ± 25 Relative %; in assay [2] (10 ppm test substance), 110 ± 20 Relative %; in assay [2] (100 ppm test substance), 125 ± 25 Relative %. Moreover, the “activity to promote the release of histamine from mast cells induced by α-toxin-producing Staphylococcus aureus cells (in words)” value in assay [1] is “little, if any, such activity”. The “activity to promote the release of histamine from mast cells induced by A23187 (in words)” value in assay [2] is listed as “little, if any, such activity”. Moreover, the entries for the “Leukotriene released (ng) B4” value in assay [3] (1 ppm test substance), in assay [3] (10 ppm test substance) and in assay [3] (100 ppm test substance) were 9 ng, 11 ng and 11 ng, respectively. Besides, the “Leukotriene released (ng) C4” value in assay [3] (1 ppm test substance) stood at 17 ng; in assay [3] (10 ppm test substance), 15 ng; in assay [3] (100 ppm test substance) it was 15 ng. The “Leukotriene released (ng) 20-COOH” value in assay [3] (1 ppm test substance) is given as 41 ng; in assay [3] (10 ppm test substance) it was 36 ng; in assay [3] (100 ppm test substance), 35 ng. The “Leukotriene released (ng) 20-OH” value in assay [3] (1 ppm test substance) is reported as 50 ng; in assay [3] (10 ppm test substance), 60 ng; in assay [3] (100 ppm test substance), 59 ng. For the same molecule, the “Leukotriene released (ng) (Total B4)” value in assay [3] (1 ppm test substance) is 100 ng; in assay [3] (10 ppm test substance), 107 ng; in assay [3] (100 ppm test substance), 105 ng. Moreover, in assay [3], the “activity to promote the release of leukotriene B4 from polymorphonuclear neutrophils (in words)” value is “little, if any, such activity”.

The values above are taken from patent publication US5466669A, “Immunostimulatory agent” (Morinaga Milk Industry Co., Ltd., priority 1993, dated 1995).
